Test results taken from patent US20260373285 (published 2026).
Where two headings read alike, the source gives them in different places.

Columns and labels:
[1] = target: T1, human Trop-2 (His) (human, UniProt P09758); experiment: SPR
T1 chain: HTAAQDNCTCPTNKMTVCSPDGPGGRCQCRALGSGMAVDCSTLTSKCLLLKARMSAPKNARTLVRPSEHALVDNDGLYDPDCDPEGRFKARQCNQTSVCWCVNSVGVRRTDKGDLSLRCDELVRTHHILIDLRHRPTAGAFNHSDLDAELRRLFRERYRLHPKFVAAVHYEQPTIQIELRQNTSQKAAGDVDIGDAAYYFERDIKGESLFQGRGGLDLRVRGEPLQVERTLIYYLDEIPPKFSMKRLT

[2] = target: T1, human Trop-2 (His); experiment: ELISA
[3] = target: T2, hPD-L1(ECD)-His (human, UniProt Q9NZQ7); experiment: SPR
T2 sequence (Q9NZQ7 19-238): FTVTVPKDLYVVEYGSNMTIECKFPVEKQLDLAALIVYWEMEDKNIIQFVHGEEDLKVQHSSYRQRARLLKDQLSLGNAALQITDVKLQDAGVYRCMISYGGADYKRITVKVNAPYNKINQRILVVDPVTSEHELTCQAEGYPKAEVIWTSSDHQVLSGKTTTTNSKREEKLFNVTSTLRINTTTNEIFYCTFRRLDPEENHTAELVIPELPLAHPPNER

[4] = target: T2, hPD-L1(ECD)-His; experiment: SPR supernatant
[5] = target: T2, hPD-L1(ECD)-His; experiment: SPR; remark: listed apart in the source
[6] = target: T2, hPD-L1(ECD)-His; experiment: SPR; remark: listed apart in the source
[7] = target: T1, human Trop-2 (His); experiment: SPR
[8] = target: T1, human Trop-2 (His); experiment: SPR
[9] = target: T1, human Trop-2 (His); experiment: SPR
[10] = target: T3, human Trop-2 on MDA-MB-468 cells (human, UniProt P09758); experiment: FACS
T3 chain: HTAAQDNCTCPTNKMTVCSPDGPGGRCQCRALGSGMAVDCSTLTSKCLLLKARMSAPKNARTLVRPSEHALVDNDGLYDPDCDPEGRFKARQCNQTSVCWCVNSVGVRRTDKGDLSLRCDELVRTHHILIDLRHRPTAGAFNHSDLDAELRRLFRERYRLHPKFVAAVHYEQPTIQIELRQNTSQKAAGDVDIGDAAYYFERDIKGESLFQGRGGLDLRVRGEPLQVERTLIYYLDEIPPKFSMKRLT

[11] = target: T1, human Trop-2 (His); experiment: SPR

B1: Trop-2-B-16 (antibody, V domains shown)
VH: EVQVVESGGGLVQPGGSLRLSCTAPERIFSIYNMGWYRQAPGKEREWVAFLMEGGRIEYADSVKGRFTISRDNAKSTVYLQMNNLNAEDAAVYYCNAGGRSGYWGKGTLVTVSS
Kd [1]: 5.21 nM | EC50 [2]: 0.0166 µg/mL

B2: PD-L1-1.168.15-xIgG1K (antibody, V domains shown)
VH: EVQLQQSGAELVKPGASVKLSCTVSGFNIEDTYIYWVKQRPEQGLEWIGWIDPANYNTKYDPRFQDKATVTVDTSSNTAYMHLSSLTSEDTAVYYCARGLRLLMDYWGQGTSVTVSS
VL: DIVMTQSQKFMSSSVGDRVSITCKASQNVHTSLAWYQQRPGQSPKALIYLASNRHTGVPDRFTGSGSGTDFTLTISNVQSEDLADYFCLQHWNYPLTFGAGTKLELRR
Kd [3]: 0.275 nM | Kd [4]: 0.379 nM

B3: PD-L1-1.168.15-z11-uIgG1K (antibody)
chain 1: not shown
chain 2: DIQMTQSPSFLSASVGDRVTITCKASQNVHTSLAWYQQKPGKSPKALIYLASNRHTGVPSRFSGSGSGTEFTLTISSLQPEDFATYFCLQHWNYPLTFGQGTKLEIKRTVAAPSVFIFPPSDEQLKSGTASVVCLLNNFYPREAKVQWKVDNALQSGNSQESVTEQDSKDSTYSLSSTLTLSKADYEKHKVYACEVTHQGLSSPVTKSFNRGEC
Kd [3]: 0.62 nM | Kd [4]: 0.863 nM

B4: ALGA105S PD-L1 arm (antibody, V domains shown)
VH: EVQLVQSGAEVKKPGATVKISCKVSGFNIEDTYIYWVQQAPGKGLEWMGWIDPANYNTKYDPRFQDRVTITVDTSTDTAYMELSSLRSEDTAVYYCARGLRLLMDYWGQGTTVTVSS
VL: DIQLTQSPSFLSASVGDRVTITCKASQNVHTSLAWYQQKPGKSPKLLIYLASNRHTGVPSRFSGSGSGTEFTLTISSLQPEDFATYYCLQHWNYPLTFGQGTKLEIKR
Kd [5]: 0.824 nM | Kd [6]: 0.824 nM

B5: PD-L1-1.168.15-z3-uIgG1K (antibody, V domains shown)
VH: EVQLVQSGAEVKKPGATVKISCKVSGFNIEDTYIYWVQQAPGKGLEWMGWIDPANYNTKYDPRFQDRVTITVDTSTDTAYMELSSLRSEDTAVYYCARGLRLLMDYWGQGTTVTVSS
VL: DIQLTQSPSFLSASVGDRVTITCKASQNVHTSLAWYQQKPGKAPKLLIYLASNRHTGVPSRFSGSGSGTEFTLTISSLQPEDFATYYCLQHWNYPLTFGQGTKLEIKR
Kd [3]: 0.876 nM | Kd [4]: 0.837 nM

B6: ALGA105X PD-L1 arm (antibody, V domains shown)
VH: EVQLVQSGAEVKKPGATVKISCKVSGFNIEDTYIYWVQQAPGKGLEWMGWIDPANYNTKYDPRFQDRVTITVDTSTDTAYMELSSLRSEDTAVYYCARGLRLLMDYWGQGTTVTVSS
VL: DIQLTQSPSFLSASVGDRVTITCKASQNVHTSLAWYQQKPGKSPKLLIYLASNRHTGVPSRFSGSGSGTEFTLTISSLQPEDFATYYCLQHWNYPLTFGQGTKLEIKR
Kd [5]: 0.822 nM | Kd [6]: 0.822 nM

B7: ALGA105X-ADC PD-L1 arm (antibody, V domains shown)
VH: EVQLVQSGAEVKKPGATVKISCKVSGFNIEDTYIYWVQQAPGKGLEWMGWIDPANYNTKYDPRFQDRVTITVDTSTDTAYMELSSLRSEDTAVYYCARGLRLLMDYWGQGTTVTVSS
VL: DIQLTQSPSFLSASVGDRVTITCKASQNVHTSLAWYQQKPGKSPKLLIYLASNRHTGVPSRFSGSGSGTEFTLTISSLQPEDFATYYCLQHWNYPLTFGQGTKLEIKR
modifications: exatecan drug-linker conjugate; full fusion SEQ69:SEQ70
Kd [5]: 0.652 nM

B8: ALGA105S-ADC PD-L1 arm (antibody, V domains shown)
VH: EVQLVQSGAEVKKPGATVKISCKVSGFNIEDTYIYWVQQAPGKGLEWMGWIDPANYNTKYDPRFQDRVTITVDTSTDTAYMELSSLRSEDTAVYYCARGLRLLMDYWGQGTTVTVSS
VL: DIQLTQSPSFLSASVGDRVTITCKASQNVHTSLAWYQQKPGKSPKLLIYLASNRHTGVPSRFSGSGSGTEFTLTISSLQPEDFATYYCLQHWNYPLTFGQGTKLEIKR
modifications: exatecan drug-linker conjugate; full fusion SEQ67:SEQ68
Kd [5]: 0.764 nM

B9: ALGA105X Trop-2 arm (antibody, V domains shown)
V domain 1: EVQVVESGGGLVQPGGSLRLSCATSGYIFSNSGMGWYRQAPGKQRELVAAISSGGTTHYADSVKGRFTISRDNSKNTVYLQMNSLRAEDTAVYYCNGDRYYSGTDVFGSWGQGTLVTVSS
V domain 2: QVQLVQSGGGLVQPGGSLRLSCAASDRTFSEYNADWFRQAPGKEREFVAAITWSGKNTRYADSVKGRFTVSRDNSKNTVYLQMNSLRAEDTAVYYCATDRWWAAGNWDGVDYWGQGTLVTVSS
Kd [7]: 3.43 nM | Kd [8]: 3.43 nM

B10: Trop-2-A-258hz3 (antibody, V domains shown)
VH: QVQLVESGGGLVQPGGSLRLSCAASDRTFSEYNADWFRQAPGKEREFVAAITWSGKNTRYADSVKGRFTVSRDNSKNTVYLQMNSLRAEDTAVYYCATDRWWAAGNWSGVDFWGQGTLVTVSS
Kd [9]: 99.2 nM | EC50 [10]: 8.7 µg/mL

B11: Trop-2-B-YC-82 (antibody, V domains shown)
VH: EVQVVESGGGLVQPGGSLRLSCATSGYIFSNSGMGWYRQAPGKQRELVAAISSGGTTHYADSVKGRFTISRDNAKSTVYLQMNSLKPEDTAVYYCNGDRYYSGTDVFGSWGQGTQVTVSS
Kd [1]: 20.1 nM | Kd [11]: 20.1 nM

B12: ALGA105S Trop-2 arm (antibody, V domains shown)
V domain 1: EVQVVESGGGLVQPGGSLRLSCATSGYIFSNSGMGWYRQAPGKQRELVAAISSGGTTHYADSVKGRFTISRDNSKNTVYLQMNSLRAEDTAVYYCNGDRYYSGTDVFGSWGQGTLVTVSS
V domain 2: QVQLVQSGGGLVQPGGSLRLSCAASDRTFSEYNADWFRQAPGKEREFVAAITWSGKNTRYADSVKGRFTVSRDNSKNTVYLQMNSLRAEDTAVYYCATDRWWAAGNWDGVDYWGQGTLVTVSS
Kd [7]: 2.75 nM | Kd [8]: 2.44 nM

B13: ALGA105X-ADC Trop-2 arm (antibody, V domains shown)
V domain 1: EVQVVESGGGLVQPGGSLRLSCATSGYIFSNSGMGWYRQAPGKQRELVAAISSGGTTHYADSVKGRFTISRDNSKNTVYLQMNSLRAEDTAVYYCNGDRYYSGTDVFGSWGQGTLVTVSS
V domain 2: QVQLVQSGGGLVQPGGSLRLSCAASDRTFSEYNADWFRQAPGKEREFVAAITWSGKNTRYADSVKGRFTVSRDNSKNTVYLQMNSLRAEDTAVYYCATDRWWAAGNWDGVDYWGQGTLVTVSS
modifications: exatecan drug-linker conjugate; full fusion SEQ69
Kd [7]: 3.33 nM

B14: ALGA105S-ADC Trop-2 arm (antibody, V domains shown)
V domain 1: EVQVVESGGGLVQPGGSLRLSCATSGYIFSNSGMGWYRQAPGKQRELVAAISSGGTTHYADSVKGRFTISRDNSKNTVYLQMNSLRAEDTAVYYCNGDRYYSGTDVFGSWGQGTLVTVSS
V domain 2: QVQLVQSGGGLVQPGGSLRLSCAASDRTFSEYNADWFRQAPGKEREFVAAITWSGKNTRYADSVKGRFTVSRDNSKNTVYLQMNSLRAEDTAVYYCATDRWWAAGNWDGVDYWGQGTLVTVSS
modifications: exatecan drug-linker conjugate; full fusion SEQ67
Kd [7]: 2.88 nM

B15: Trop-2-A-258hz2 (antibody, V domains shown)
VH: QVQLVQSGGGLVQPGGSLRLSCAASDRTFSEYNADWFRQAPGKEREFVAAITWSGKNTRYADSVKGRFTVSRDNSKNTVYLQMNSLRAEDTAVYYCATDRWWAAGNWDGVDYWGQGTLVTVSS
Kd [9]: 75.5 nM | EC50 [10]: 0.176 µg/mL

B16: Trop-2-A-258 (antibody, V domains shown)
VH: QVQLVESGGGLVQAGGSLRLSCAASDRTFSEYNADWFRQAPGKEREFVAAITWSGKNTRYADSVKGRFTVSRDNAKNTVYLQMNSLKPEDTAVYYCATDRWWAAGNWDGVDYWGKGTLVTVSS
Kd [1]: 59.2 nM | Kd [9]: 64.6 nM | EC50 [10]: 0.34 µg/mL | EC50 [2]: 0.00557 µg/mL

B17: Datopotamab (ALGA106B) (antibody, V domains shown)
VH: QVQLVQSGAEVKKPGASVKVSCKASGYTFTTAGMQWVRQAPGQGLEWMGWINTHSGVPKYAEDFKGRVTISADTSTSTAYLQLSSLKSEDTAVYYCARSGFGSSYWYFDVWGQGTLVTVSS
VL: DIQMTQSPSSLSASVGDRVTITCKASQDVSTAVAWYQQKPGKAPKLLIYSASYRYTGVPSRFSGSGSGTDFTLTISSLQPEDFAVYYCQQHYITPLTFGQGTKLEIKR
Kd [1]: 23.5 nM | Kd [8]: 22.5 nM | Kd [9]: 28.3 nM | Kd [11]: 15.4 nM | EC50 [10]: 0.827 µg/mL | EC50 [2]: 0.0507 µg/mL

B18: Sacituzumab (ALGA106A) (antibody, V domains shown)
VH: QVQLQQSGSELKKPGASVKVSCKASGYTFTNYGMNWVKQAPGQGLKWMGWINTYTGEPTYTDDFKGRFAFSLDTSVSTAYLQISSLKADDTAVYFCARGGFGSSYWYFDVWGQGSLVTVSS
VL: DIQLTQSPSSLSASVGDRVSITCKASQDVSIAVAWYQQKPGKAPKLLIYSASYRYTGVPDRFSGSGSGTDFTLTISSLQPEDFAVYYCQQHYITPLTFGAGTKVEIKR
Kd [1]: 0.859 nM | Kd [11]: 0.859 nM | EC50 [10]: 0.151 µg/mL | EC50 [2]: 0.027 µg/mL
